Experimental data published in patent US20200190507A1, “Encoded Solid Phase Compound Library with Polynucleotide Based Barcoding” (The Scripps Research Institute, priority 2016, published 2020).
Entries after “also recorded” stand apart in the source; their conditions may differ.

System: ATB serum IgGs
Test: Antigen competition binding analysis with beads displaying 2-B
Design: species or system human
Details: for competition with 2-B for binding ATB serum IgGs: pooled ATB serum, beads displaying 2-B, CFP 250 μg/mL

B1: recombinant Ag85B: Mycobacterium tuberculosis recombinant protein reference standard Ag85B, expressed in E. coli (protein)
chain: FSRPGLPVEYLQVPSPSMGRDIKVQFQSGGNNSPAVYLLDGLRAQDDYNGWDINTPAFEWYYQSGLSIVMPVGGQSSFYSDWYSPACGKAGCQTYKWETFLTSELPQWLSANRAVKPTGSAAIGLSMAGSSAMILAAYHPQQFIYAGSLSALLDPSQGMGPSLIGLAMGDAGGYKAADMWGPSSDPAWERNDPTQQIPKLVANNTRLWVYCGNGTPNELGGANIPAEFLENFVRSSNLKFQDAYNAAGGHNAVFNFPPNGTHSWEYWGAQLNAMKGDLQSSLGAG
competition with 2-B for binding ATB serum IgGs: no binding competition; also recorded: unreactive; also recorded: did not compete

B2: Ag85B: Mycobacterium tuberculosis purified native protein Ag85B (Gene Rv1886c), Strain H37Rv (protein)
chain: B1 chain
ATB IgG binding of Ag85B relative to Ag85A (competition titration with 2-B beads): ~10 fold
competition with 2-B for binding ATB serum IgGs: compete strongly
